Experimental data taken from PMC3229523, “Identification of Lactoferricin B Intracellular Targets Using an Escherichia coli Proteome Chip” (PLoS ONE, 2011).
Ends that are not written are not given here. * marks the point of attachment. Biotin = O=C1N[C@H]2[C@H](CS[C@H]2CCCCC(=O)*)N1

Experiments:
Assay in all cases: peptide or protein array; E. coli proteome chip: purified His-tagged proteins printed in duplicate on Fullmoon slides, blocked with 1% BSA; 10 nM N-terminal biotinylated LfcinB with 1% BSA, room temperature, 1 h; detected with DyLight 649-labeled streptavidin, ratio to DyLight 549-labeled anti-His antibody; ProCAT normalisation, local cut-off; triplicate chips
Settings in all cases: both partners purified
WcaL = target: T1, WcaL (E. coli K-12, UniProt P71243 1-406)
T1 construct: WcaL, E. coli K-12
T1 sequence (looked up): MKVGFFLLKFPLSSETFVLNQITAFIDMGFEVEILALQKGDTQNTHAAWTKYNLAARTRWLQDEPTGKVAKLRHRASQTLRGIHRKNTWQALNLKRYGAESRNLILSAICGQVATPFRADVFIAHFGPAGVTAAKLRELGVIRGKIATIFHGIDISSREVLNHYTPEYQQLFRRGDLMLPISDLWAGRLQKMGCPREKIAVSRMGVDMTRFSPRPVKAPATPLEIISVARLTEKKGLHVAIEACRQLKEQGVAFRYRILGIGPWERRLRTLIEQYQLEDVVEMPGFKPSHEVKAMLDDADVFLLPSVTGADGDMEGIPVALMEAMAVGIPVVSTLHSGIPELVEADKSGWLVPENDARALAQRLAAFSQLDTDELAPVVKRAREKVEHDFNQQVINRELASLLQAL

CaiA = target: T2, CaiA (E. coli K-12, UniProt P60584 1-380)
T2 construct: CaiA, E. coli K-12
T2 sequence (looked up): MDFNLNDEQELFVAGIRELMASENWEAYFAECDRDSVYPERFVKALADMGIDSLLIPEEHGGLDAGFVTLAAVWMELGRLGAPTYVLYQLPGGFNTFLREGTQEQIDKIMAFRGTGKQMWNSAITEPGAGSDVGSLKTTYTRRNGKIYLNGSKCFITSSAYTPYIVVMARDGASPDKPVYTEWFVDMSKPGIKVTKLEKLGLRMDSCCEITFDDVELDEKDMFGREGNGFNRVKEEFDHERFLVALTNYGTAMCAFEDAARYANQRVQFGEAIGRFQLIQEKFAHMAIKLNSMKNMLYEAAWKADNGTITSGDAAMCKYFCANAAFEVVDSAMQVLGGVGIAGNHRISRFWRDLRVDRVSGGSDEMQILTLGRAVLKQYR

HisA = target: T3, HisA (E. coli K-12, UniProt P10371 1-245)
T3 construct: HisA, E. coli K-12
T3 sequence (P10371 whole entry): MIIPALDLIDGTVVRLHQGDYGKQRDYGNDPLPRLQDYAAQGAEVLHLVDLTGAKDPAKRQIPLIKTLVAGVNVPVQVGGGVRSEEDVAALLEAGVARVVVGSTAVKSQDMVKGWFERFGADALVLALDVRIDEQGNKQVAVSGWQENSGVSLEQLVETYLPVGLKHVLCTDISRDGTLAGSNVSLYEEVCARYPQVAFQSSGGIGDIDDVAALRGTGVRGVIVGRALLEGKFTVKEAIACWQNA

RffH = target: T4, RffH (E. coli K-12, UniProt P61887 1-293)
T4 construct: RffH, E. coli K-12
T4 sequence (P61887 whole entry): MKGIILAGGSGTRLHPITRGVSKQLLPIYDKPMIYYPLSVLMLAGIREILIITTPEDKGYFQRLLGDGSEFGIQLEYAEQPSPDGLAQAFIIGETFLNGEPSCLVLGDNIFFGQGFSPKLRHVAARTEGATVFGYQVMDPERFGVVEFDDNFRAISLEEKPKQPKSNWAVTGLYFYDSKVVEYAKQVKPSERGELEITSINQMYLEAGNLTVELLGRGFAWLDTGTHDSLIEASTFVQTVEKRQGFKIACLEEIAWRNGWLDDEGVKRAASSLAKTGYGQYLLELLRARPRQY

PurC = target: T5, PurC (E. coli K-12, UniProt P0A7D7 1-237)
T5 construct: PurC, E. coli K-12
T5 sequence (looked up): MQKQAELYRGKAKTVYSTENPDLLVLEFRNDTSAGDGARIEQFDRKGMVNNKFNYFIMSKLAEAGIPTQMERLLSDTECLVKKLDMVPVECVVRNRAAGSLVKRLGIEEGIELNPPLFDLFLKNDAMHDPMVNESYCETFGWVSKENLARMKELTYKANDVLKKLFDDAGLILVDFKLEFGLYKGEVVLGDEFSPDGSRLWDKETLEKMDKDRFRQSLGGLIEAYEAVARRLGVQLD

GloA = target: T6, GloA (E. coli K-12, UniProt P0AC81 1-135)
T6 construct: GloA, E. coli K-12
T6 sequence (looked up): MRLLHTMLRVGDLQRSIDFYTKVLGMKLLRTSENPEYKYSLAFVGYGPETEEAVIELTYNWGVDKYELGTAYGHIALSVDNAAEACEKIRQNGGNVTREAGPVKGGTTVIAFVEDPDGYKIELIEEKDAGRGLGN

YqcA = target: T7, YqcA (E. coli K-12, UniProt P65367 1-149)
T7 construct: YqcA, E. coli K-12
T7 sequence (looked up): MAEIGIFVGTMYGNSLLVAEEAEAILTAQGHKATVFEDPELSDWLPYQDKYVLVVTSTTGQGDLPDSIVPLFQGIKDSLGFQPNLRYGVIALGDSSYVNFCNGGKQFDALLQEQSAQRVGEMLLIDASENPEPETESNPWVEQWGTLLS

YcgW = target: T8, YcgW (E. coli K-12, UniProt P75987 1-107)
T8 construct: YcgW, E. coli K-12
T8 sequence (looked up): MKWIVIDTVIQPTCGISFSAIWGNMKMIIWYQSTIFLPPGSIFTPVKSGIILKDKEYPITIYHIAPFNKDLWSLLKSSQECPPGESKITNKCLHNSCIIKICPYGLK

Measured: binding result

B1: N-terminal biotinylated Lactoferricin B (peptide, UniProt P24627 36-60, looked up)
peptide: Biotin-FKCRRWQWRMKKLGAPSITCVRRAF
modifications: ends and bridges not checked
notes: lactoferricin B (LfcinB), cationic antimicrobial peptide of 25 amino acids; also called biotinylated LfcinB; biotin-labeled LfcinB; source: bought: Kelowna Inc
binds: all assays above
